{"source": "paper PMC10437998", "about": "“A previously unrecognized superfamily of macro-conotoxins includes an inhibitor of the sensory neuron calcium channel Cav2.3” (PLOS Biology, 2023)", "key": {"[1]": {"molecular_target": "the molecule itself", "assay": "SEC; […] (pH 7.8), 150 mM NaCl, 0.5 mL/min; […]"}, "[2]": {"molecular_target": "the molecule itself", "assay": "[…] (pH 7.8), room temperature; 1 mg/mL to 13.2 mg/mL (100 μM to 1.3 mM); […]"}}, "note": "Several values for one entry are separate records, joined by “and”; a condition that tells them apart may be missing. Equal entries are not always repeated."}
{"protein": "Mu8.1 (SLC_Mu8.1), macro-conotoxin from Conus mucronatus (natural protein, also called Mu8.1_38; Mu8.1_59) GENSDNLTHCRLFEFRLCLLECMSLTLDHCYARCTTVITQIHGSDTNRFDCTIFKTCYYRCYVLGKTEDHCWKGTATSVTGDVGDLEFC", "values": [{"measurement": "stoichiometry N", "setting": "[1]", "result": 2}, {"measurement": "stoichiometry N", "setting": "[2]", "result": "4 and 6"}]}
